The supplement of paper PMC9112550, “Optimization of the antimicrobial peptide Bac7 by deep mutational scanning” (BMC Biology, 2022)

Tested on: Escherichia coli TOP10
Assay: shrunken log2 fold change of peptide-encoding DNA abundance (4.5 h post-induction vs induction); higher = less antimicrobial activity (less host growth inhibition)
Conditions: time post-induction: 4.5 h; library: site-saturation at positions 5, 18, 19, 20
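Further: peptides expressed intracellularly from a pBAD plasmid library in pooled LB shake-flask culture, induced with 0.3% L-arabinose, DNA abundance read by NGS, three biological replicates, DESeq2 with apeglm shrinkage.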

Row | Sequence | shrunken log2 fold change
1 | RRIRWRPPRLPRPRPRPARPPRP | 0.566
2 | RRIRKRPPRLPRPRPRPTETPRP | 0.114
3 | RRIRERPPRLPRPRPRPMEDPRP | -0.0739
4 | RRIRQRPPRLPRPRPRPPVMPRP | -0.285
5 | RRIRYRPPRLPRPRPRPFNWPRP | -0.238
6 | RRIRWRPPRLPRPRPRPNYSPRP | -0.15
7 | RRIRTRPPRLPRPRPRPDGAPRP | 0.132
8 | RRIRRRPPRLPRPRPRPQKTPRP | -0.019
9 | RRIRARPPRLPRPRPRPRFQPRP | 0.466
10 | RRIRARPPRLPRPRPRPDNPPRP | 0.0396
11 | RRIRIRPPRLPRPRPRPQKIPRP | -0.148
12 | RRIRTRPPRLPRPRPRPAASPRP | 0.169
13 | RRIRGRPPRLPRPRPRPMMGPRP | 0.409
14 | RRIRCRPPRLPRPRPRPKEGPRP | 0.201
15 | RRIRSRPPRLPRPRPRPCGRPRP | -0.485
16 | RRIRCRPPRLPRPRPRPVVIPRP | -0.223
17 | RRIRCRPPRLPRPRPRPVLLPRP | -0.385
18 | RRIRERPPRLPRPRPRPVCFPRP | -0.173
19 | RRIRSRPPRLPRPRPRPWKGPRP | -0.0267
20 | RRIRGRPPRLPRPRPRPWDRPRP | -0.141
21 | RRIRSRPPRLPRPRPRPMKDPRP | -0.157
22 | RRIRRRPPRLPRPRPRPMVNPRP | -0.0292

Row | Sequence | shrunken log2 fold change
23 | RRIRARPPRLPRPRPRPCHTPRP | 0.0762
24 | RRIRMRPPRLPRPRPRPNKYPRP | -0.148
25 | RRIRTRPPRLPRPRPRPWRSPRP | -0.0438
26 | RRIRERPPRLPRPRPRPGCQPRP | 0.0111
27 | RRIRDRPPRLPRPRPRPFWYPRP | -0.167
28 | RRIRYRPPRLPRPRPRPHQEPRP | -0.0108
29 | RRIRQRPPRLPRPRPRPGLAPRP | 0.197
30 | RRIRVRPPRLPRPRPRPNLGPRP | -0.185
31 | RRIRQRPPRLPRPRPRPIKCPRP | -0.00607
32 | RRIRRRPPRLPRPRPRPSRRPRP | -0.0701
33 | RRIRRRPPRLPRPRPRPIYGPRP | -0.69
34 | RRIRKRPPRLPRPRPRPIVPPRP | 0.269
35 | RRIRKRPPRLPRPRPRPSNKPRP | 0.0208
36 | RRIRWRPPRLPRPRPRPLKMPRP | 0.234
37 | RRIRGRPPRLPRPRPRPFQLPRP | 0.0144
38 | RRIRIRPPRLPRPRPRPRSHPRP | -0.287
39 | RRIRYRPPRLPRPRPRPSGKPRP | -0.447
40 | RRIRTRPPRLPRPRPRPHIDPRP | -0.0151
41 | RRIRGRPPRLPRPRPRPAASPRP | 0.947
42 | RRIRPRPPRLPRPRPRPEETPRP | -0.131
43 | RRIRMRPPRLPRPRPRPIRFPRP | -0.133
44 | RRIRTRPPRLPRPRPRPEGFPRP | -0.041

Row | Sequence | shrunken log2 fold change
45 | RRIRKRPPRLPRPRPRPIFRPRP | 0.132
46 | RRIRDRPPRLPRPRPRPCGIPRP | 0.0258
47 | RRIRRRPPRLPRPRPRPAYNPRP | -0.28
48 | RRIRARPPRLPRPRPRPCIWPRP | 0.118
49 | RRIRARPPRLPRPRPRPWAIPRP | 0.253
50 | RRIRERPPRLPRPRPRPTFKPRP | -0.313
51 | RRIRWRPPRLPRPRPRPWKNPRP | 0.0346
52 | RRIRRRPPRLPRPRPRPYSTPRP | -0.295
53 | RRIRIRPPRLPRPRPRPGAFPRP | -0.294
54 | RRIRPRPPRLPRPRPRPHHVPRP | 0.0547
55 | RRIRDRPPRLPRPRPRPMSCPRP | -0.00207
56 | RRIRDRPPRLPRPRPRPRDIPRP | 0.0838
57 | RRIRLRPPRLPRPRPRPRIWPRP | 0.394
58 | RRIRSRPPRLPRPRPRPMSAPRP | 0.202
59 | RRIRSRPPRLPRPRPRPIFIPRP | -0.329
60 | RRIRIRPPRLPRPRPRPMSPPRP | 0.111
61 | RRIRKRPPRLPRPRPRPYIFPRP | -0.129
62 | RRIRFRPPRLPRPRPRPTVDPRP | -0.175
63 | RRIRWRPPRLPRPRPRPDFKPRP | -0.0843
64 | RRIRMRPPRLPRPRPRPELDPRP | 2.77
65 | RRIRMRPPRLPRPRPRPKGEPRP | 1.27
66 | RRIRWRPPRLPRPRPRPGDIPRP | -0.133

Row | Sequence | shrunken log2 fold change
67 | RRIRTRPPRLPRPRPRPCRCPRP | -0.00986
68 | RRIRERPPRLPRPRPRPNRAPRP | 0.0169
69 | RRIRLRPPRLPRPRPRPWVVPRP | 0.0937
70 | RRIRDRPPRLPRPRPRPFAYPRP | -0.101
71 | RRIRVRPPRLPRPRPRPYDDPRP | -0.000921
72 | RRIRHRPPRLPRPRPRPMWSPRP | -0.209
73 | RRIRTRPPRLPRPRPRPPMIPRP | -0.44
74 | RRIRCRPPRLPRPRPRPLKGPRP | -0.204
75 | RRIRWRPPRLPRPRPRPFWNPRP | -0.175
76 | RRIRIRPPRLPRPRPRPEQNPRP | -0.204
77 | RRIRHRPPRLPRPRPRPYVVPRP | 0.0242
78 | RRIRKRPPRLPRPRPRPSNIPRP | -0.306
79 | RRIRMRPPRLPRPRPRPSIIPRP | 0.0973
80 | RRIRQRPPRLPRPRPRPFWCPRP | 0.0825
81 | RRIRCRPPRLPRPRPRPNCVPRP | -0.00701
82 | RRIRMRPPRLPRPRPRPFVLPRP | -0.691
83 | RRIRPRPPRLPRPRPRPGYIPRP | -0.553
84 | RRIRTRPPRLPRPRPRPIVPPRP | -0.229
85 | RRIRPRPPRLPRPRPRPFLCPRP | -0.0669
86 | RRIRLRPPRLPRPRPRPWNIPRP | -0.176
87 | RRIRLRPPRLPRPRPRPSVQPRP | -0.57
88 | RRIRDRPPRLPRPRPRPFQAPRP | 0.0185

Row | Sequence | shrunken log2 fold change
89 | RRIRGRPPRLPRPRPRPDCFPRP | 1.13
90 | RRIRTRPPRLPRPRPRPVHNPRP | -0.159
91 | RRIRCRPPRLPRPRPRPVKWPRP | -0.24
92 | RRIRDRPPRLPRPRPRPSGGPRP | 0.356
93 | RRIRIRPPRLPRPRPRPPEYPRP | -0.186
94 | RRIRCRPPRLPRPRPRPHHPPRP | -0.37
95 | RRIRCRPPRLPRPRPRPDSSPRP | -0.026
96 | RRIRQRPPRLPRPRPRPKGFPRP | -0.219
97 | RRIRERPPRLPRPRPRPQFRPRP | -0.00151
98 | RRIRKRPPRLPRPRPRPEYNPRP | 0.196
99 | RRIRRRPPRLPRPRPRPKIIPRP | -0.364
100 | RRIRRRPPRLPRPRPRPFNPPRP | -0.277
101 | RRIRERPPRLPRPRPRPPTLPRP | 0.162
102 | RRIRWRPPRLPRPRPRPQFNPRP | -0.498
103 | RRIRARPPRLPRPRPRPGIEPRP | 0.108
104 | RRIRCRPPRLPRPRPRPRTHPRP | -0.168
105 | RRIRKRPPRLPRPRPRPLQKPRP | -0.0368
106 | RRIRVRPPRLPRPRPRPTSWPRP | 0.383
107 | RRIRQRPPRLPRPRPRPPNVPRP | -0.0755
108 | RRIRHRPPRLPRPRPRPFDWPRP | -0.0238
109 | RRIRSRPPRLPRPRPRPEIYPRP | -0.295
